For two proteins, Km results are on record in article PMC8058416, “Coordinated and High-Level Expression of Biosynthetic Pathway Genes Is Responsible for the Production of a Major Floral Scent Compound Methyl Benzoate in Hedychium coronarium” (Frontiers in Plant Science, 2021).

Substrate in data set [1]: O=C(O)c1ccccc1
The experiment in a line: GC-MS (SPME) of methyl benzoate formed, Michaelis-Menten fit. It counts as biochemical, Hedychium coronarium. The note with it: SAM co-substrate (2 mM in standard assay), 100 mM KCl.

Substrate in data set [2]: O=C(O)c1ccccc1O
The experiment in a line: GC-MS (SPME) of methyl salicylate formed, Michaelis-Menten fit. In kind it is biochemical, Hedychium coronarium. The note with it: SAM co-substrate (2 mM in standard assay), 100 mM KCl; optimal reaction condition.

B1: HcBSMT2 (Hedychium coronarium) (protein)
chain: MGLKVEQALHMVGGSGETSYATNSRLQEKAIYRTKPVLATTIEEMYKGLLPEHMVVVDLGCSSGSNTFIVVSQVLDIIVELRRMMEMKKPLEVQFFLNDLPGNDFNYVFQSLDKFKNKVEEESKGELLVPYYVVGVAGSFYGRLFPCASVHFFHSSYCLMWLSQVPEELENDQGVSLNKGNIYWTETSSSQVEKAYREQYKKDFLTFLRSRYIELNIGGGMMLTFLGRRKRTPGHGDLCHLWRLLAEALNSMVLEEIIPEEKVSTFNLPIYGPSLEEVKSIIHHEGLFDLDRVEIFESSWDPFDDSGDDSFDLSNYTKSAKNVADCIRAVVEPLIVHQFGDVILDDLFTRYAQNVLKHLLKEKANHTILVIALKKRV
notes: full coding region in pET30a (EcoRI/NotI), E. coli Rosetta (DE3), Ni-NTA partially purified, His tag; 377 residues, 43 kDa predicted; Tyr157, Leu226, Trp242
For B1, the Michaelis constant (Km) came to 87.73 ± 7.03 µM in data set [1] (optimal condition (25 °C, optimum pH 6.5)) and 26.73 ± 3.88 µM in data set [2].

B2: HcBSMT1 (Hedychium coronarium) (protein)
chain: MLPNTTIMEGEMSLKVEHALHMVGGTGETSYVANSRLQEKAIHQTKSLLAIAVEETYKALHSDQMVVVDLGCSSGPNTLLMLSHVLSVATKLPRRMELQFFLNDLPGNDFNCLFQSLEGFKKRLEGEIEGDLLVPYYVAGVAGSFYGRLFPRASVHLFHSSFCLMWLSQVPEGLKIEHGVPLNKGNIYWTETSLAKVEKAYQEQFQKDFSTFLKLRHTELNVGGRMVLVFVGRRKRTPGNGDFVHLYGLLGEALNSMVLEGIIQEEKVDTFNLPIYGASFEEVESVIHNEGVFDLDRAEIFESSWDPFDDSKDDIYAIPNYMRSGKNVANYIRAVVEPLIVHQFGTVILDDLFARYAHLVSKHLLKKKANHTILVFALKKKA
notes: full coding region in pET30a (EcoRI/NotI), E. coli Rosetta (DE3), Ni-NTA partially purified, His tag; 382 residues, 43 kDa predicted; Phe162, Val231, Tyr247
On to B2, for which, in data set [1] (optimal condition (25 °C, optimum pH 6.0)), the Michaelis-Menten constant (Km) came to 1456.17 ± 163.13 µM.

As usually defined, the Km is the substrate concentration at which the rate is half of its maximum.
